Reference: PMC6815954, “Rational design of caspase-responsive smart molecular probe for positron emission tomography imaging of drug-induced apoptosis” (Theranostics, 2019)

Substrate: CC(=O)N[C@@H](CC(=O)O)C(=O)N[C@@H](CCC(=O)O)C(=O)N[C@H](C(=O)N[C@@H](CC(=O)O)C(=O)N[C@@H](CSSC(C)(C)C)C(=O)N[C@@H](Cc1cn(CC[N+](C)(C)C[B-](F)(F)F)nn1)C(=O)Nc1ccc2nc(C#N)sc2c1)C(C)C
Test: Enzyme kinetics study of cleavage of 1
Format: biochemical, human
Conditions: other: 1 at 0.1-2 mM, caspase-3 0.4 μg/1 mL, assay buffer pH 7.4, 37 °C, 1 h, HPLC
Experimental: Figure S17. (A) HPLC traces of probe 1 incubated with the cell lysates of apoptotic HeLa cells for 8 h.
Bottom: probe 1 alone; Top: reduced product (*) and cyclized product (#). (B) The content of 1-dimer after incubation with the cell lysates of apoptotic HeLa cells at different time.
For the enzyme-controlled cleavage kinetics studies, the probe 1 at different concentrations (0.1, 0.25, 0.5, 1, and 2 mM) was incubated with the caspase-3 (0.4 μg/1 mL) assay buffer (pH = 7.4) containing 50 mM HEPES, 100 mM NaCl, 1 mM EDTA, 1 mM DTT, 10% glycerol, and 0.1% CHAPS at 37 °C for 1 h, respectively. Then the caspase-3-cleaved intermediates were characterized by HPLC, and the kinetic parameters were determined according to the method reported previously. 4,5
Figure S18. Kinetic studies for the cleavage of probe 1 towards caspase-3.
Biocompatibility of 1 and 1-NPs
One cancer cell line (HeLa) and three normal cell lines (GES-1, LO2 and HEK293) were cultured in DMEM supplemented with 10% fetal bovine serum (FBS, Gibco). The cells were grown in tissue culture dishes and kept in a humidified atmosphere of 5% CO 2 at 37 °C. The […]
(1 picture or pasted object on this page, not shown here)

B1: caspase-3 (Homo sapiens) (protein)
chain 1: SGISLDNSYKMDYPEMGLCIIINNKNFHKSTGMTSRSGTDVDAANLRETFRNLKYEVRNKNDLTREEIVELMRDVSKEDHSKRSSFVCVLLSHGEEGIIFGTNGPVDLKKITNFFRGDRCRSLTGKPKLFIIQACRGTELDCGIETD
chain 2: SGVDDDMACHKIPVEADFLYAYSTAPGYYSWRNSKDGSWFIQSLCAMLKQYADKLEFMHILTRVNRKVATEFESFSFDATFHAKKQIPCIVSMLTKELYFYH
B1 was tested, and the Km was 330.43 µM, the kcat was 6.22 s⁻¹ and the kcat/Km was 17617.56 M⁻¹ s⁻¹.
